The values below come from patent US20240083996A1, “COMPOSITION FOR PROPHYLAXIS OR TREATMENT OF IL-8 RELATED DISEASES” (Chugai Seiyaku Kabushiki Kaisha, priority 2016, published 2024).

The subject of test [1] is post-surgical adhesion. Nature of the test: Adhesion after surgery (area surrounding the incision site) in surgically-induced endometriosis monkey models. The format is in vivo, cynomolgus monkeys. Conditions: 10 mg/kg; two months before versus six months after initiation of administration, five evaluators. How it is done:
Specifically, adhesion to the area surrounding the incision site on the abdominal wall was compared before and after administration and evaluated by five evaluators on a three-point scale: (1) Improved, (2) Stable, and (3) Progressed. Ratings with a consensus among three or more of the five evaluators were adopted; otherwise (2) Stable was used. Evaluations were carried out on six monkeys in the vehicle group as well as seven monkeys in the antibody […]/[…]-[…] administration group. […] The monkey with “Progressed” was an individual in which the blood concentration of antibody […]/[…]-[…] had decreased due to anti-antibody production.

In a further test the test system is adenomyosis lesions. Description: Adenomyosis complication in surgically-induced endometriosis monkey models. The format is in vivo, cynomolgus monkeys. Conditions: one case per group, compared to the vehicle group (FIG. 37). An excerpt:
After the final laparoscopic observation six months after the start of antibody administration in surgically-induced endometriosis monkey models, the uteri collected during autopsy were fixed with 10% neutral buffered formalin and HE-stained for observation. Endometrial tissues analogous to those of adenomyosis were strongly seen in the uterus in one case of the vehicle group as well as in one case of the antibody administration group. […] Thus, the monkeys were considered as being a human adenomyosis complication model, and the endometrial tissues in the myometria of these single cases were compared.

The subject of test [2] is soluble forms of FcγRIa and FcγRIIIa in human and cynomolgus monkey. Description: Binding to various FcγRs (BIACORE T200). The settings on record: 20° C., HBS-EP+ (FIG. 27). The method, then: Soluble FcγRIa and FcγRIIIa in both human and cynomolgus monkey were produced in the form of His-tagged molecules by methods known to those of ordinary skill in the art. […] Next, soluble FcγRIa or FcγRIIIa was injected with a running buffer (used as a reference solution), and was made to interact with the antibodies captured onto the sensor chip. HBS-EP+ (GE Healthcare) was used as the running buffer, and HBS-EP+ was also used to dilute the soluble FcγRIa or FcγRIIIa. […] All measurements were carried out at 20° C.
In general terms: SPR reads the build-up and loss of mass on a sensor chip optically.

Test [3] relates to post-surgical adhesion. Nature of the test: Post-surgical adhesion-induced monkey model. Conditions: 10 mg/kg i.v. one hour or less after surgery, laparoscopy 24 to 35 days later; individuals #201, #206. The format is in vivo, cynomolgus monkeys. Set-up: key: ○: Adhesion found; x: No adhesion. How it is done: To prepare a post-surgical adhesion-induced model, female cynomolgus monkeys 9 to 16 years of age (provided by the Tsukuba Primate Research Center at the National Institutes of Biomedical Innovation, Health and Nutrition) were treated under anesthesia as follows. Anesthesia was performed using balanced anesthesia of ketamine/xylazine (mixed at an adequate ratio of about 2:1) and isoflurane. An incision of 5 to 6 cm was made in the median line of the abdominal wall. After opening the abdomen, a 1-cm incision was made on the uterine corpus and sutured with 4 stitches using a single suture. Then, the whole uterus was brushed five times with gauze. Next, a 1-cm incision was made to the right abdominal wall peritoneal part at 2 cm from the incised median line of the abdominal wall and sutured by running suture with 4 stitches using an absorbable suture. After suture, the sutured part was brushed five times with gauze. Likewise, the peritoneum of left abdominal wall was incised, sutured, and brushed with gauze. Finally, the median line of abdominal wall was sutured by running suture with 10 to 11 stitches. The entire steps were completed in one hour or less. The antagonist Antisedan (in roughly the same amount as that of xylazine) and the antibiotic cephradine were administered at the time of awakening after surgery. Then, the pain reliever Zalban was administered for two days after surgery, and the monkeys were observed regularly every day to confirm the absence of post-surgical abnormalities. At laparoscopic observation, anesthesia and post-surgical monitoring were also performed in the same way.
The control group was untreated. 24 to 35 days after administration of the anti-IL-8 antibody, laparoscopy was performed to observe the adhesion formed due to incision, suture, and blushing with gauze. The abdomen was incised in the median line under anesthesia, and laparoscopic observation was performed by inserting a trocar and then introducing a laparoscope. The laparoscope was connected to a video system (KARL STORZ) and a monitor. The video system was used for recording, and the monitor was used for intraperitoneal observation. The size of the adhesion was measured using a graduated bar or graduated forceps. The presence, range, and location of adhesion were assessed during laparoscopic observation. […] Although adhesion was found in individual No. 206 in the anti-IL-8 antibody administration group, no adhesion was found in the right and left abdominal wall peritoneum or at the uterine incision site in individual No. 201. […] Those skilled in the art will naturally appreciate that anti-IL-8 antibodies may exert a stronger adhesion formation-preventive effect by appropriately altering the timing of administration or such. […]

B1: H1009/L395-F1974m: H1009-F1974m (SEQ ID NO:36) heavy chain, L395-kOMT light chain; the anti-IL-8 antibody of Table 29 (antibody)
heavy: QVQLVESGGGLVQPGGSLRLSCAASGFTFSDYYLSWVRQAPGKGLEWVGLIRNKDNYHTPEYSASVKGRFTISRDDSKNSLYLTMSDLKTEDTAVYYCARENHRYDVELAYWGQGTLVTVSSASTKGPSVFPLAPSSKSTSGGTAALGCLVKDYFPEPVTVSWNSGALTSGVHTFPAVLQSSGLYSLSSVVTVPSSSLGTQTYICNVNHKPSNTKVDKKVEPKSCDKTHTCPPCPAPELRRGPSVFLFPPKPKDTLMISRTPEVTCVVVDVSHEDPEVKFNWYVDGVEVHNAKTKPREEQYNSTYRVVSVLTVLHQDWLNGKEYKCKVSNKGLPSSIEKTISKAKGQPREPQVYTLPPSREEMTKNQVSLTCLVKGFYPSDIAVEWESNGQPENNYKTTPPVLDSDGSFFLYSKLTVDKSRWQQGNVFSCSVLHEALHAHTTRKELSLSP
light: DIQMTQSPSSLSASVGDRVTITCRASEIIYSYLAWYQQKPGKAPKLLIYKAKTHADGVPSRFSGSGSGTDFTFTISSLQPEDIATYYCKHHFGFPRTFGQGTKVEIKRTVAAPSVFIFPPSDEQLKSGTASVVCLLNNFYPREAKVQWKVDNALQSGNSQESVTEQDSKDSTYSLSSTLTLSKADYEKHKVYACEVTHQGLSSPVTKSFNRGEC
On to B1, for which, in the test with post-surgical adhesion [1], the “adhesion to the area surrounding the incision site: Improved (monkeys/group)” value is given as 6/7, the “adhesion to the area surrounding the incision site: Progressed (monkeys/group)” value was 1/7 and the “adhesion to the area surrounding the incision site: Stable (monkeys/group)” value is recorded as 0/7. The “histopathology of adenomyosis lesions in the uterus (HE staining)” value with adenomyosis lesions is “atrophy of endometrial epithelia in the adenomyosis lesions as well as reduction and atrophy of stromal cells were observed”. Besides, the “binding to FcγRs (hFcγRIa, hFcγRIIIa, cynoFcγRIa, cynoFcγRIIIa)” value in test [2] is on record as “not to bind to any of the FcγRs”. In addition, in the test on post-surgical adhesion [3], the “adhesion at incision site: Abdominal wall Median line” value is listed as “○”; the “adhesion at incision site: Peritoneum (L)” value is “○ and x”; the “adhesion at incision site: Peritoneum (R)” value is “○ and x”; the “adhesion at incision site: Uterus” value was “○ and x”.
